These results are taken from patent US5854025.

For assay [1], the target named is type 2 IGF receptor on H35 (rat hepatoma) cells (rat). Nature of the assay: displacement of 125I-IGF-II from H35 cells (type 2 IGF receptor); secreted preparation.
Assay [2] shares this target. Briefly: displacement of 125I-IGF-II from H35 cells (type 2 IGF receptor); refolded preparation. (Displacement assays read how much labelled ligand stays bound in the presence of the test substance.)
Assay [3] deals with insulin receptor on H35 cells (rat) (UniProt P15127). Nature of the assay: displacement of 125I-insulin from H35 cells (insulin receptor).
For assay [4], the target named is type 2 IGF receptor on H35 (rat hepatoma) cells (rat). Nature of the assay: displacement of 125I-IGF-II from H35 cells (type 2 IGF receptor).

Sequence of IGF-II (Q^37 Q^38) (ligand) (chain): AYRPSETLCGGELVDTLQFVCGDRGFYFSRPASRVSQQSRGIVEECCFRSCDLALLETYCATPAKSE
Sequence of recombinant IGF-II from a commercial supplier (Bachem), reference standard (ligand) (chain): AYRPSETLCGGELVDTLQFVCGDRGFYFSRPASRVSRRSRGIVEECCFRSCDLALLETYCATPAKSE

As usually defined, the IC50 is the concentration that inhibits the measured activity by half. A higher IC50 goes with weaker potency in that assay. Regarding IGF-II (Q^37 Q^38) (ligand), the values for the half-inhibitory concentration (IC50) in assay [1] and in assay [2] were 0.03 µg/mL and 0.06 µg/mL, respectively. insulin (ligand) yielded an IC50 in assay [3] of 0.0048 µg/mL.

In assay [4], “recombinant IGF-II from a commercial supplier (Bachem), reference standard (ligand)” returned an IC50 of 0.018 µg/mL. On the same count and under the same terms, the value for “wild-type IGF-II, refolded material (made by the HRP fusion route, pSD28, cyanogen bromide cleavage and refolding) (ligand)” was 0.03 µg/mL.
